The target in this experiment is human corticotropin-releasing factor 2α (CRF2 α receptor) (human), Q13324. As to the kind of experiment: cell-based or functional assay.

Starred links: 1 amine or outer side, 2 acyl side, 3 side chain; linkers in the order of their positions; H or OH if unused. Non-standard residues stand in square brackets, D forms with d. Groups on a side chain read outwards from the residue. No end group written: not given here. *: point of attachment. C18 diacid = O=C(O)CCCCCCCCCCCCCCCCC(=O)*; γGlu = O=C(O)[C@H](CCC(=O)[*:2])N[*:1]; AEEA = NCCOCCOCC(=O)O; Aib = CC(C)(N)C(=O)O

Sequence of human corticotropin-releasing factor 2α (CRF2 α receptor) (human), Q13324 (Q13324 20-411): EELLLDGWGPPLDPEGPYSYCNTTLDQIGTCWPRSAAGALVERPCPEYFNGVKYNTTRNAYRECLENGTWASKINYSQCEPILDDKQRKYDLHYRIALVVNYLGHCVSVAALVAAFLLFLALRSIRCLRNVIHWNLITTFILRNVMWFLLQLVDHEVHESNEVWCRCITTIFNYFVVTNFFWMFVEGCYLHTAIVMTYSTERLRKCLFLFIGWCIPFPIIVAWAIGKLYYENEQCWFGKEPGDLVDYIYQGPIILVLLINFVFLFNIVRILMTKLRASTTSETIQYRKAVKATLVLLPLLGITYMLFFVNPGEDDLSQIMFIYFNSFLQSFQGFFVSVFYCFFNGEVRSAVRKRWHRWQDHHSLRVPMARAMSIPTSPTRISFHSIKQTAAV

B1: SEQ ID NO: 104 (peptide)
peptide: IVLSLDVPIKLK([AEEA-AEEA-γGlu-C18 diacid])QILLKQERQK[Aib]QREQAETNKQILAQV-NH2
modifications: N-terminus assumed
SMILES: CC[C@H](C)[C@H](N)C(=O)N[C@H](C(=O)N[C@@H](CC(C)C)C(=O)N[C@@H](CO)C(=O)N[C@@H](CC(C)C)C(=O)N[C@@H](CC(=O)O)C(=O)N[C@H](C(=O)N1CCC[C@H]1C(=O)N[C@H](C(=O)N[C@@H](CCCCN)C(=O)N[C@@H](CC(C)C)C(=O)N[C@@H](CCCCNC(=O)COCCOCCNC(=O)COCCOCCNC(=O)CC[C@H](NC(=O)CCCCCCCCCCCCCCCCC(=O)O)C(=O)O)C(=O)N[C@@H](CCC(N)=O)C(=O)N[C@H](C(=O)N[C@@H](CC(C)C)C(=O)N[C@@H](CC(C)C)C(=O)N[C@@H](CCCCN)C(=O)N[C@@H](CCC(N)=O)C(=O)N[C@@H](CCC(=O)O)C(=O)N[C@@H](CCCNC(=N)N)C(=O)N[C@@H](CCC(N)=O)C(=O)N[C@@H](CCCCN)C(=O)NC(C)(C)C(=O)N[C@@H](CCC(N)=O)C(=O)N[C@@H](CCCNC(=N)N)C(=O)N[C@@H](CCC(=O)O)C(=O)N[C@@H](CCC(N)=O)C(=O)N[C@@H](C)C(=O)N[C@@H](CCC(=O)O)C(=O)N[C@H](C(=O)N[C@@H](CC(N)=O)C(=O)N[C@@H](CCCCN)C(=O)N[C@@H](CCC(N)=O)C(=O)N[C@H](C(=O)N[C@@H](CC(C)C)C(=O)N[C@@H](C)C(=O)N[C@@H](CCC(N)=O)C(=O)N[C@H](C(N)=O)C(C)C)[C@@H](C)CC)[C@@H](C)O)[C@@H](C)CC)[C@@H](C)CC)C(C)C)C(C)C
Take B1: the EC50 [nM], 0% HSA stood at 0.32 nM.

B2: SEQ ID NO: 101 (peptide)
peptide: IVLSLDVPIKLK([AEEA-AEEA-γGlu-C18 diacid])KILLKQERQKK[Aib]REQAETNKQILERV-NH2
modifications: N-terminus assumed
SMILES: CC[C@H](C)[C@H](N)C(=O)N[C@H](C(=O)N[C@@H](CC(C)C)C(=O)N[C@@H](CO)C(=O)N[C@@H](CC(C)C)C(=O)N[C@@H](CC(=O)O)C(=O)N[C@H](C(=O)N1CCC[C@H]1C(=O)N[C@H](C(=O)N[C@@H](CCCCN)C(=O)N[C@@H](CC(C)C)C(=O)N[C@@H](CCCCNC(=O)COCCOCCNC(=O)COCCOCCNC(=O)CC[C@H](NC(=O)CCCCCCCCCCCCCCCCC(=O)O)C(=O)O)C(=O)N[C@@H](CCCCN)C(=O)N[C@H](C(=O)N[C@@H](CC(C)C)C(=O)N[C@@H](CC(C)C)C(=O)N[C@@H](CCCCN)C(=O)N[C@@H](CCC(N)=O)C(=O)N[C@@H](CCC(=O)O)C(=O)N[C@@H](CCCNC(=N)N)C(=O)N[C@@H](CCC(N)=O)C(=O)N[C@@H](CCCCN)C(=O)N[C@@H](CCCCN)C(=O)NC(C)(C)C(=O)N[C@@H](CCCNC(=N)N)C(=O)N[C@@H](CCC(=O)O)C(=O)N[C@@H](CCC(N)=O)C(=O)N[C@@H](C)C(=O)N[C@@H](CCC(=O)O)C(=O)N[C@H](C(=O)N[C@@H](CC(N)=O)C(=O)N[C@@H](CCCCN)C(=O)N[C@@H](CCC(N)=O)C(=O)N[C@H](C(=O)N[C@@H](CC(C)C)C(=O)N[C@@H](CCC(=O)O)C(=O)N[C@@H](CCCNC(=N)N)C(=O)N[C@H](C(N)=O)C(C)C)[C@@H](C)CC)[C@@H](C)O)[C@@H](C)CC)[C@@H](C)CC)C(C)C)C(C)C
For B2, the EC50 [nM], 0% HSA was 0.11 nM and the EC50 [nM], 0.1% HSA was 4.28 nM.

B3: SEQ ID NO: 100 (peptide)
peptide: IVLSLDVPIKLK([AEEA-AEEA-γGlu-C18 diacid])KILLKQERQKK[Aib]REQAETN[Aib]QILAQV-NH2
modifications: N-terminus assumed
SMILES: CC[C@H](C)[C@H](N)C(=O)N[C@H](C(=O)N[C@@H](CC(C)C)C(=O)N[C@@H](CO)C(=O)N[C@@H](CC(C)C)C(=O)N[C@@H](CC(=O)O)C(=O)N[C@H](C(=O)N1CCC[C@H]1C(=O)N[C@H](C(=O)N[C@@H](CCCCN)C(=O)N[C@@H](CC(C)C)C(=O)N[C@@H](CCCCNC(=O)COCCOCCNC(=O)COCCOCCNC(=O)CC[C@H](NC(=O)CCCCCCCCCCCCCCCCC(=O)O)C(=O)O)C(=O)N[C@@H](CCCCN)C(=O)N[C@H](C(=O)N[C@@H](CC(C)C)C(=O)N[C@@H](CC(C)C)C(=O)N[C@@H](CCCCN)C(=O)N[C@@H](CCC(N)=O)C(=O)N[C@@H](CCC(=O)O)C(=O)N[C@@H](CCCNC(=N)N)C(=O)N[C@@H](CCC(N)=O)C(=O)N[C@@H](CCCCN)C(=O)N[C@@H](CCCCN)C(=O)NC(C)(C)C(=O)N[C@@H](CCCNC(=N)N)C(=O)N[C@@H](CCC(=O)O)C(=O)N[C@@H](CCC(N)=O)C(=O)N[C@@H](C)C(=O)N[C@@H](CCC(=O)O)C(=O)N[C@H](C(=O)N[C@@H](CC(N)=O)C(=O)NC(C)(C)C(=O)N[C@@H](CCC(N)=O)C(=O)N[C@H](C(=O)N[C@@H](CC(C)C)C(=O)N[C@@H](C)C(=O)N[C@@H](CCC(N)=O)C(=O)N[C@H](C(N)=O)C(C)C)[C@@H](C)CC)[C@@H](C)O)[C@@H](C)CC)[C@@H](C)CC)C(C)C)C(C)C
B3: the EC50 [nM], 0% HSA was 0.51 nM and the EC50 [nM], 0.1% HSA was 20.5 nM.

B4: SEQ ID NO: 103 (peptide)
peptide: IVLSLDVPIKLK([AEEA-AEEA-γGlu-C18 diacid])QILLEQERQK[Aib]QREQAETNKQILAQV-NH2
modifications: N-terminus assumed
SMILES: CC[C@H](C)[C@H](N)C(=O)N[C@H](C(=O)N[C@@H](CC(C)C)C(=O)N[C@@H](CO)C(=O)N[C@@H](CC(C)C)C(=O)N[C@@H](CC(=O)O)C(=O)N[C@H](C(=O)N1CCC[C@H]1C(=O)N[C@H](C(=O)N[C@@H](CCCCN)C(=O)N[C@@H](CC(C)C)C(=O)N[C@@H](CCCCNC(=O)COCCOCCNC(=O)COCCOCCNC(=O)CC[C@H](NC(=O)CCCCCCCCCCCCCCCCC(=O)O)C(=O)O)C(=O)N[C@@H](CCC(N)=O)C(=O)N[C@H](C(=O)N[C@@H](CC(C)C)C(=O)N[C@@H](CC(C)C)C(=O)N[C@@H](CCC(=O)O)C(=O)N[C@@H](CCC(N)=O)C(=O)N[C@@H](CCC(=O)O)C(=O)N[C@@H](CCCNC(=N)N)C(=O)N[C@@H](CCC(N)=O)C(=O)N[C@@H](CCCCN)C(=O)NC(C)(C)C(=O)N[C@@H](CCC(N)=O)C(=O)N[C@@H](CCCNC(=N)N)C(=O)N[C@@H](CCC(=O)O)C(=O)N[C@@H](CCC(N)=O)C(=O)N[C@@H](C)C(=O)N[C@@H](CCC(=O)O)C(=O)N[C@H](C(=O)N[C@@H](CC(N)=O)C(=O)N[C@@H](CCCCN)C(=O)N[C@@H](CCC(N)=O)C(=O)N[C@H](C(=O)N[C@@H](CC(C)C)C(=O)N[C@@H](C)C(=O)N[C@@H](CCC(N)=O)C(=O)N[C@H](C(N)=O)C(C)C)[C@@H](C)CC)[C@@H](C)O)[C@@H](C)CC)[C@@H](C)CC)C(C)C)C(C)C
On to B4, for which the EC50 [nM], 0% HSA turned out to be 0.84 nM.

B5: SEQ ID NO: 105 (peptide)
peptide: IVLSLDVPIKLK([AEEA-AEEA-γGlu-C18 diacid])QILLEQERQK[Aib]QRQQAETNKQILAQV-NH2
modifications: N-terminus assumed
SMILES: CC[C@H](C)[C@H](N)C(=O)N[C@H](C(=O)N[C@@H](CC(C)C)C(=O)N[C@@H](CO)C(=O)N[C@@H](CC(C)C)C(=O)N[C@@H](CC(=O)O)C(=O)N[C@H](C(=O)N1CCC[C@H]1C(=O)N[C@H](C(=O)N[C@@H](CCCCN)C(=O)N[C@@H](CC(C)C)C(=O)N[C@@H](CCCCNC(=O)COCCOCCNC(=O)COCCOCCNC(=O)CC[C@H](NC(=O)CCCCCCCCCCCCCCCCC(=O)O)C(=O)O)C(=O)N[C@@H](CCC(N)=O)C(=O)N[C@H](C(=O)N[C@@H](CC(C)C)C(=O)N[C@@H](CC(C)C)C(=O)N[C@@H](CCC(=O)O)C(=O)N[C@@H](CCC(N)=O)C(=O)N[C@@H](CCC(=O)O)C(=O)N[C@@H](CCCNC(=N)N)C(=O)N[C@@H](CCC(N)=O)C(=O)N[C@@H](CCCCN)C(=O)NC(C)(C)C(=O)N[C@@H](CCC(N)=O)C(=O)N[C@@H](CCCNC(=N)N)C(=O)N[C@@H](CCC(N)=O)C(=O)N[C@@H](CCC(N)=O)C(=O)N[C@@H](C)C(=O)N[C@@H](CCC(=O)O)C(=O)N[C@H](C(=O)N[C@@H](CC(N)=O)C(=O)N[C@@H](CCCCN)C(=O)N[C@@H](CCC(N)=O)C(=O)N[C@H](C(=O)N[C@@H](CC(C)C)C(=O)N[C@@H](C)C(=O)N[C@@H](CCC(N)=O)C(=O)N[C@H](C(N)=O)C(C)C)[C@@H](C)CC)[C@@H](C)O)[C@@H](C)CC)[C@@H](C)CC)C(C)C)C(C)C
In turn, B5 displayed an EC50 [nM], 0% HSA of 0.41 nM and an EC50 [nM], 0.1% HSA of 15.3 nM.

B6: SEQ ID NO: 102 (peptide)
peptide: IVLSLD[dV]PIKLK([AEEA-AEEA-γGlu-C18 diacid])QILLKQERQKKQREQAETNKQILAQV-NH2
modifications: N-terminus assumed
SMILES: CC[C@H](C)[C@H](N)C(=O)N[C@H](C(=O)N[C@@H](CC(C)C)C(=O)N[C@@H](CO)C(=O)N[C@@H](CC(C)C)C(=O)N[C@@H](CC(=O)O)C(=O)N[C@@H](C(=O)N1CCC[C@H]1C(=O)N[C@H](C(=O)N[C@@H](CCCCN)C(=O)N[C@@H](CC(C)C)C(=O)N[C@@H](CCCCNC(=O)COCCOCCNC(=O)COCCOCCNC(=O)CC[C@H](NC(=O)CCCCCCCCCCCCCCCCC(=O)O)C(=O)O)C(=O)N[C@@H](CCC(N)=O)C(=O)N[C@H](C(=O)N[C@@H](CC(C)C)C(=O)N[C@@H](CC(C)C)C(=O)N[C@@H](CCCCN)C(=O)N[C@@H](CCC(N)=O)C(=O)N[C@@H](CCC(=O)O)C(=O)N[C@@H](CCCNC(=N)N)C(=O)N[C@@H](CCC(N)=O)C(=O)N[C@@H](CCCCN)C(=O)N[C@@H](CCCCN)C(=O)N[C@@H](CCC(N)=O)C(=O)N[C@@H](CCCNC(=N)N)C(=O)N[C@@H](CCC(=O)O)C(=O)N[C@@H](CCC(N)=O)C(=O)N[C@@H](C)C(=O)N[C@@H](CCC(=O)O)C(=O)N[C@H](C(=O)N[C@@H](CC(N)=O)C(=O)N[C@@H](CCCCN)C(=O)N[C@@H](CCC(N)=O)C(=O)N[C@H](C(=O)N[C@@H](CC(C)C)C(=O)N[C@@H](C)C(=O)N[C@@H](CCC(N)=O)C(=O)N[C@H](C(N)=O)C(C)C)[C@@H](C)CC)[C@@H](C)O)[C@@H](C)CC)[C@@H](C)CC)C(C)C)C(C)C
In the case of B6, the EC50 [nM], 0% HSA worked out at 0.07 nM.

The record behind these values is patent US12679878B2, “CRF2 receptor agonists and their use in therapy” (SANOFI, priority 2020, dated 2026).
